Test results published in PMC3654831 (Cell reports, 2012).
Positions count from the first letter of the chain named. Numbers in names are those of the source. Where “and” joins values, the source holds several entries; their conditions need not be identical. Identical values can stand only once.

T1: Get5 ubiquitin-like domain (Get5-UBL), wild type (S. cerevisiae, UniProt Q12285 74-151)
T1 sequence: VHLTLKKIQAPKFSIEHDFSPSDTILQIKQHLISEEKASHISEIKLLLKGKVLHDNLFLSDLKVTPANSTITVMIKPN

T2: polyhistidine-tagged Get5-UBL-C (S. cerevisiae)
T2 sequence (Q12285 whole entry, looked up): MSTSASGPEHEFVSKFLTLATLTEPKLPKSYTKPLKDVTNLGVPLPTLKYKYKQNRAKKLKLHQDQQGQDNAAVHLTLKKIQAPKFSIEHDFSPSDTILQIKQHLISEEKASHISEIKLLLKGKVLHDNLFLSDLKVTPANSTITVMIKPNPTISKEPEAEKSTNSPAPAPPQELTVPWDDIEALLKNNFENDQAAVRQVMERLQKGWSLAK

T3: polyhistidine-tagged Get5-UBL, wild type (S. cerevisiae, UniProt Q12285 74-151)
T3 sequence: T1 sequence

B1: Sgt2 N-terminal homodimerization domain (Sgt2-N), wild type (domain or fragment, S. cerevisiae)
chain: SASKEEIAALIVNYFSSIVEKKEISEDGADSLNVAMDCISEAFGFEREAVSGILGKSEFKGQHLADILNSA
B2: Get5-UBL L120A (domain or fragment, S. cerevisiae)
chain: T1 sequence with L47A
B3: Sgt2-N C39V (domain or fragment, S. cerevisiae)
chain: B1 chain with C38V
B4: Sgt2-N D31A (domain or fragment, S. cerevisiae)
chain: B1 chain with D30A
B5: Sgt2-N D28A (domain or fragment, S. cerevisiae)
chain: B1 chain with D27A
B6: Sgt2-N V35A (domain or fragment, S. cerevisiae)
chain: B1 chain with V34A
B7: Sgt2-N C39S (domain or fragment, S. cerevisiae)
chain: B1 chain with C38S

Legend:
[1] = target: T1, Get5 ubiquitin-like domain (Get5-UBL), …; assay: NMR exchange spectroscopy
solution NMR structure = target: the molecule itself; assay: solution NMR structure
[2] = target: T1, Get5 ubiquitin-like domain (Get5-UBL), …; assay: NMR exchange spectroscopy; remark: listed apart in the source
[3] = target: T2, polyhistidine-tagged Get5-UBL-C (S. cerevisiae); assay: SPR
[4] = target: T3, polyhistidine-tagged Get5-UBL, wild type; assay: SPR
[5] = target: B1; assay: ITC
[6] = target: T1, Get5 ubiquitin-like domain (Get5-UBL), …; assay: ITC

Binder: B1
koff [1]: 7.5 s⁻¹ and 5.7 s⁻¹
stoichiometry N (solution NMR structure): 2
kon [2]: ~2e+08 M⁻¹ s⁻¹
Kd [3]: 0.749 µM
kon [3]: 1.06e+07 M⁻¹ s⁻¹
Kd [4]: 3.78 µM

Binder: B2
fold lower affinity than wild type [5]: 1000 fold

Binder: B3
fold lower affinity than wild type [6]: 100 fold

Binder: B4
binding result [4]: binds

Binder: B5
binding result [4]: binds

Binder: B6
fold lower affinity than wild type [6]: > 100 fold

Binder: B7
fold lower affinity than wild type [6]: ~700 fold
